Measured values reported in article doi:10.1101/2022.06.09.495492 (2022).

What was measured:
[1] = target: His-△237 (T. vaginalis); test: ELISA; F-actin
[2] = target: His-△237 (T. vaginalis); test: ELISA; G-actin

B1: GST-Tvactin (natural protein)
chain: not shown
Kd [1]: 10.3 µM | Kd [2]: 9.01 µM
